How the values were obtained:
mouse Gal-3 [1] = molecular target: T1, mouse Gal-3 (mouse, UniProt P16110 2-264, limits assumed); assay: ELISA on mouse Gal-3 (moGal3), one OD450 value per clone
T1 construct: also called mouse Galectin-3; Lgal3

[2] = molecular target: T2, human Galectin-3 (LGALS3) (human, UniProt P17931 2-250, limits assumed); assay: ELISA on human Gal-3 (huGal3), one OD450 value per clone
T2 construct: also called human Gal-3; Gal-3

[3] = molecular target: T2, human Galectin-3 (LGALS3); assay: SPR, increasing concentrations of the mAb
From the text: Clones 46H02 and 20F08 were then subjected to determination of binding parameters using surface plasmon resonance (SPR) in the presence of increasing concentrations of these antibodies.

[4] = molecular target: T3, PE labeled Gal-3 (Gal-3-PE) (human, UniProt P17931 1-250, limits assumed, labelled with PE (phycoerythrin; Innova Biosciences kit), sites not stated); assay: blockade of Gal-3-PE binding to OVCAR3 cells by purified antibody, number of Gal-3-PE-bound cells (Mirrorball)
T3 construct: Bought human Gal-3 labelled with PE; also called huGal-3 (Abcam ab89487) labelled with PE
From the text: Reactions to measure binding of Gal-3-PE to OVCAR3 cells were set up in the presence of PBS (negative control), or increasing concentrations of the indicated antibody. Purified antibodies were used in the binding reactions. Shown are the effects of antibody concentration on the extent of inhibition of Gal-3-PE binding to OVCAR3 by antibody clones 20F08 and 12H07 (FIG. 6A), which have the identical sequences, 46H02 (FIG. 6B), clones 38E05 and 39F02 (FIG. 6C), which also have identical sequences, and 14D11.2D3 (FIG. 6D).
An assay for Gal-3-PE binding to cancer cells was developed as a secondary screen. huGal-3 (Abcam ab89487) was labelled with PE (Innova Biosciences) according to manufacturer's instructions. The assay for Gal-3-PE binding to OVCAR3 cells was performed as follows: cultured […] cells were trypsinized and washed with culture medium. 500, 1000 or 2000 cells were incubated with various concentrations of Gal-3-PE. The indicated number of OVCAR3 cells were pipetted into a 96-well plate with the indicated amount of Gal-3-PE and incubated on the bench in the dark for 2 hrs prior to being read on a Mirrorball® device (TTP Labtech). Binding of Gal-3-PE to OVCAR3 cells was detected using the Mirrorball® flow cytometer.
Next, the clones were subjected to determination of dose-response of blockade of Gal-3-PE binding to OVCAR3 cells. […]

mouse Gal-3 [5] = molecular target: T1, mouse Gal-3; assay: ELISA on mouse Gal-3 (moGal3)

T1 sequence (P16110 2-264 limits assumed): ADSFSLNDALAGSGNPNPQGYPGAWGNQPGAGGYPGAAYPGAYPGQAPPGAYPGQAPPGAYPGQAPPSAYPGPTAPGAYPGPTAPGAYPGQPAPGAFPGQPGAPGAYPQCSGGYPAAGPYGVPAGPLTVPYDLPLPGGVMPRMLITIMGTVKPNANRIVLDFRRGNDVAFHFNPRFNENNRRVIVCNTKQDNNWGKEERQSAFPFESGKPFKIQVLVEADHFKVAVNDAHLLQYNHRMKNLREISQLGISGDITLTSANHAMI
T2 sequence (P17931 2-250 limits assumed): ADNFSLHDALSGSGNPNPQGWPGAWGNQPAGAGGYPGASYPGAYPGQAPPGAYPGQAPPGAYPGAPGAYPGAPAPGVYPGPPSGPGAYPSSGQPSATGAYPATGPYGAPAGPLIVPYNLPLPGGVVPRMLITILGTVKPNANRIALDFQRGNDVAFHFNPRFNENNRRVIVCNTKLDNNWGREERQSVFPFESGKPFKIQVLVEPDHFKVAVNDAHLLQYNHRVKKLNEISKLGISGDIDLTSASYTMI
T3 sequence (P17931 whole entry): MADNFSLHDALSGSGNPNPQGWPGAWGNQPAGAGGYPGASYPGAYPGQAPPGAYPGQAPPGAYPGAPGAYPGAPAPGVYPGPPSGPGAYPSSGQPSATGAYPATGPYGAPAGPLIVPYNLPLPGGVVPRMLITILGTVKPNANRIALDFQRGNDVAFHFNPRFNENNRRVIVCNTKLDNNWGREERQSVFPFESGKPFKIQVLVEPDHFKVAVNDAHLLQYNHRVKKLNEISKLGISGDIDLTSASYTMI

Row | Binder | OD450 (mouse Gal-3 [1]) | OD450 [2] | Kd [3] | IC50 (read off the curve) [4] | binding result (mouse Gal-3 [5])
1 | mAb 39F02 (antibody, V domains shown, Hybridoma antibody from AlivaMab Mouse; Human HC (chimeric IgH with mouse CH2 and CH3) and murine LC; also called clone 39F02) VH: EVQLLESGGGLVQPGGSLRLSCAASGFTLSNYAMSWVRQAPGKGLEWVSAISGSGGGTYNADSVKGRFTISRDNSKNTLYLQMNSLRAEDTAVYYCAKEAWISYFDYWGQGTLVTVSS VL: DIVMSQSPSSLAVSVGEKVTLSCKSSQSLLYGDDQKNYLAWYQQKPGQSPKLLLYWASTWESGVPDRFTGSGSGTDFTLTISSVKAADLAVYYCQQYYSYPWTFGGGTKLEIK | 0.726 | 0.502 | – | – | –
2 | mAb 38E05 (antibody, V domains shown, Hybridoma antibody from AlivaMab Mouse; Human HC (chimeric IgH with mouse CH2 and CH3) and murine LC; also called clone 38E05) VH: EVQLLESGGGLVQPGGSLRLSCAASGFTLSNYAMSWVRQAPGKGLEWVSAISGSGGGTYNADSVKGRFTISRDNSKNTLYLQMNSLRAEDTAVYYCAKEAWISYFDYWGQGTLVTVSS VL: DIVMSQSPSSLAVSVGEKVTLSCKSSQSLLYGDDQKNYLAWYQQKPGQSPKLLLYWASTWESGVPDRFTGSGSGTDFTLTISSVKAADLAVYYCQQYYSYPWTFGGGTKLEIK | 1.12 | 0.86 | – | – | –
3 | mAb 12H07 (antibody, V domains shown, Hybridoma antibody from AlivaMab Mouse; Human HC (chimeric IgH with mouse CH2 and CH3) and murine LC; also called 12H7; clone 12H07) VH: EVQLVESGGGLVKPGGSLRLSCAASGFIFSNYNINWVRQAPGKGLEWVSCVSRSNYTYYTDSVKGRFTISRDNAKKSLYLQMNSLRAEDTAVYYCARDCGTYGVFDYWGQGTLVTVSS VL: ETTVTQSPASLSMAIGEKVTIRCITSTDIDDDMNWYQQKPGEPPKLLISEGNILRPGVPSRFSSSGYGTDFVFAIENMLSEDVADYYCLQSDNLPYTFGGGTKLELK | 0.049 | 1.4 | – | – | no binding

Further lines, results first:

Row | OD450 (mouse Gal-3 [1]) | OD450 [2] | Kd [3] | IC50 (read off the curve) [4] | binding result (mouse Gal-3 [5]) | Binder
4 | 1.38 | 2.56 | 10 nM | ~1 µg/mL | – | mAb 46H02 (antibody, V domains shown, Hybridoma antibody from AlivaMab Mouse; 46H02 has a fully human F(ab)2 (human light chain); also called clone 46H02) VH: QVQLVQSGAEVKKPGASVKVSCKASGYTFTGYSMHWVRQAPGQGLEWMGWINPHSGGTNSAQKFQGRVTMTRDTSIGTAYMELNRLRSDDTAVYYCVRDNPITGFDYWGQGTLVTVSS VL: not shown
5 | 0.047 | 0.523 | 44 nM | – | no binding | mAb 20F08 (antibody, V domains shown, Hybridoma antibody from AlivaMab Mouse; Human HC (chimeric IgH with mouse CH2 and CH3) and murine LC; also called clone 20F08) VH: EVQLVESGGGLVKPGGSLRLSCAASGFIFSNYNINWVRQAPGKGLEWVSCVSRSNYTYYTDSVKGRFTISRDNAKKSLYLQMNSLRAEDTAVYYCARDCGTYGVFDYWGQGTLVTVSS VL: ETTVTQSPASLSMAIGEKVTIRCITSTDIDDDMNWYQQKPGEPPKLLISEGNILRPGVPSRFSSSGYGTDFVFAIENMLSEDVADYYCLQSDNLPYTFGGGTKLELK
